The record followed here is EP4792830A2.

Read-outs that look alike come from different tables or passages of the source.

Experiment [1] deals with endogenous TFPI in human plasma (human), P10646. Briefly: cell-based or functional assay.
Experiment [2] has the same target. Briefly: cell-based or functional assay. This is another data set of the same source.

B1: hz4D8 (antibody, human IgG1, kappa)
heavy: EVQLVESGGGLVQPGGSLRLSCAASGYTFTDYNLDWVRQAPGKGLEWVADINPINGATLYNQKFKGRFTISRDQAKNSLYLQMNSLRAEDTAVYYCARYYGDYDAMDYWGQGTLVTVSSASTKGPSVFPLAPSSKSTSGGTAALGCLVKDYFPEPVTVSWNSGALTSGVHTFPAVLQSSGLYSLSSVVTVPSSSLGTQTYICNVNHKPSNTKVDKKVEPKSCDKTHTCPPCPAPEAAGAPSVFLFPPKPKDTLMISRTPEVTCVVVDVSHEDPEVKFNWYVDGVEVHNAKTKPREEQYNSTYRVVSVLTVLHQDWLNGKEYKCKVSNKALPAPIEKTISKAKGQPREPQVYTLPPSREEMTKNQVSLTCLVKGFYPSDIAVEWESNGQPENNYKTTPPVLDSDGSFFLYSKLTVDKSRWQQGNVFSCSVMHEALHNHYTQKSLSLSPG
light: DIQMTQSPSSLSASVGDRVTITCKASQDVHTAVAWYQQKPGKAPKLLIYWASTRHTGVPSRFSGSGSGTDYTLTISSLQPEDFATYYCQQHYTTPYTFGQGTKLEIKRTVAAPSVFIFPPSDEQLKSGTASVVCLLNNFYPREAKVQWKVDNALQSGNSQESVTEQDSKDSTYSLSSTLTLSKADYEKHKVYACEVTHQGLSSPVTKSFNRGEC
In experiment [1], B1 had a Dilute PT EC50 of 0.47 nM; an EC50 (dilute prothrombin time, clotting time) of 0.47 nM; a TGA Velocity EC50 of 3.9 nM; a TGA Velocity Index at 20 nM of 15.7.

B2: 2A8-200 (antibody, human IgG1, lambda)
heavy: QVQLVESGGGLVQPGGSLRLSCAASGFTFRSYGMDWVRQAPGKGLEWVSSIRGSRSSTYYADSVKGRFTISRDNSKNTLYLQMNSLRAEDTAVYYCARLYRYWFDYWGQGTLVTVSSASTKGPSVFPLAPSSKSTSGGTAALGCLVKDYFPEPVTVSWNSGALTSGVHTFPAVLQSSGLYSLSSVVTVPSSSLGTQTYICNVNHKPSNTKVDKKVEPKSCDKTHTCPPCPAPEAAGAPSVFLFPPKPKDTLMISRTPEVTCVVVDVSHEDPEVKFNWYVDGVEVHNAKTKPREEQYNSTYRVVSVLTVLHQDWLNGKEYKCKVSNKALPAPIEKTISKAKGQPREPQVYTLPPSREEMTKNQVSLTCLVKGFYPSDIAVEWESNGQPENNYKTTPPVLDSDGSFFLYSKLTVDKSRWQQGNVFSCSVMHEALHNHYTQKSLSLSPG
light: DIELTQPPSVSVAPGQTARISCSGDNLRNYYAHWYQQKPGQAPVVVIFYDVNRPSGIPERFSGSNSGNTATLTISGTQAEDEADYYCQSWWDGVPVFGGGTKLTVLGQPKAAPSVTLFPPSSEELQANKATLVCLISDFYPGAVTVAWKADSSPVKAGVETTTPSKQSNNKYAASSYLSLTPEQWKSHRSYSCQVTHEGSTVEKTVAPTECS
On to B2, for which, in experiment [1], the Dilute PT EC50 was 1 nM.

B3: TFPI-24 (antibody, human IgG1, lambda)
heavy: EVQLVESGGGSVQPGRSLRLSCAVSGLTIDNYAMQWVRQRPGKGLEWVSGISGNSRSIGYADSVKGRLTISRDNAKNSLYLQIDSLRADDTALYYCAIFLHESDYWGQGTLVTVSSASTKGPSVFPLAPSSKSTSGGTAALGCLVKDYFPEPVTVSWNSGALTSGVHTFPAVLQSSGLYSLSSVVTVPSSSLGTQTYICNVNHKPSNTKVDKKVEPKSCDKTHTCPPCPAPEAAGAPSVFLFPPKPKDTLMISRTPEVTCVVVDVSHEDPEVKFNWYVDGVEVHNAKTKPREEQYNSTYRVVSVLTVLHQDWLNGKEYKCKVSNKALPAPIEKTISKAKGQPREPQVYTLPPSREEMTKNQVSLTCLVKGFYPSDIAVEWESNGQPENNYKTTPPVLDSDGSFFLYSKLTVDKSRWQQGNVFSCSVMHEALHNHYTQKSLSLSPG
light: not shown
For B3, in experiment [1], the EC50 (dilute prothrombin time, clotting time) came to 0.57 nM and the TGA Velocity Index at 20 nM is 23.2.

B4: TFPI-118 (antibody, human IgG1, lambda)
heavy: EVQLVESGGGLVQPGRSLRLSCAVSGLTIDNYAMQWVRQAPGKGLEWVSGISGNSRSIGYADSVKGRFTISRDNAKNSLYLQMNSLRAEDTALYYCAIFLHESDYWGQGTLVTVSSASTKGPSVFPLAPSSKSTSGGTAALGCLVKDYFPEPVTVSWNSGALTSGVHTFPAVLQSSGLYSLSSVVTVPSSSLGTQTYICNVNHKPSNTKVDKKVEPKSCDKTHTCPPCPAPEAAGAPSVFLFPPKPKDTLMISRTPEVTCVVVDVSHEDPEVKFNWYVDGVEVHNAKTKPREEQYNSTYRVVSVLTVLHQDWLNGKEYKCKVSNKALPAPIEKTISKAKGQPREPQVYTLPPSREEMTKNQVSLTCLVKGFYPSDIAVEWESNGQPENNYKTTPPVLDSDGSFFLYSKLTVDKSRWQQGNVFSCSVMHEALHNHYTQKSLSLSPG
light: not shown
In experiment [1], B4 had a Dilute PT EC50 of 1.16 nM; an EC50 (dilute prothrombin time, clotting time) of 1.16 nM; a TGA Velocity EC50 of 7.72 nM.

B5: 4D8.b1 (antibody, mouse IgG1, kappa)
heavy: EVLLQQSGPELVKPGASVKIPCKASGYTFTDYNLDWVKQSHGKSLEWIGDINPINGATLYNQKFKGKATLTVDQSSSTAYMELRSLTSEDTAVYYCSIYYGDYDAMDYWGQGASVTVSSAKTTPPSVYPLAPGSAAQTNSMVTLGCLVKGYFPEPVTVTWNSGSLSSGVHTFPAVLQSDLYTLSSSVTVPSSTWPSETVTCNVAHPASSTKVDKKIVPRDCGCKPCICTVPEVSSVFIFPPKPKDVLTITLTPKVTCVVVDISKDDPEVQFSWFVDDVEVHTAQTQPREEQFNSTFRSVSELPIMHQDWLNGKEFKCRVNSAAFPAPIEKTISKTKGRPKAPQVYTIPPPKEQMAKDKVSLTCMITDFFPEDITVEWQWNGQPAENYKNTQPIMDTDGSYFVYSKLNVQKSNWEAGNTFTCSVLHEGLHNHHTEKSLSHSPGK
light: DIVMTQSHKFMSTSVGDRVSITCKASQDVHTAVAWYQQKPGQSPRLLIYWASTRHTGVPDRFTGCGSGTDYTLTISSVQAEDLALYYCQQHYTTPYTFGGGTKLEMKADAAPTVSIFPPSSEQLTSGGASVVCFLNNFYPKDINVKWKIDGSERQNGVLNSWTDQDSKDSTYSMSSTLTLTKDEYERHNSYTCEATHKTSTSPIVKSFNRNEC
As to B5, the TGA Velocity Index at 20 nM in experiment [2] worked out at 26.3; in experiment [1] it was 13.5.
